Where a chain is given by its changes, count along the chain named.
Tests used:
[1] = biological target: T1, full-length human C1s (produced in house) (human, UniProt P09871 16-688); test: BLI (Octet RED96e), antibody on AHC biosensor; C1s Species: Human; R^2 0.9999
T1 construct: Called full-length; Partly auto-cleaved at R422-I423 on blots; also called HuC1s; Hu C1s
T1 sequence: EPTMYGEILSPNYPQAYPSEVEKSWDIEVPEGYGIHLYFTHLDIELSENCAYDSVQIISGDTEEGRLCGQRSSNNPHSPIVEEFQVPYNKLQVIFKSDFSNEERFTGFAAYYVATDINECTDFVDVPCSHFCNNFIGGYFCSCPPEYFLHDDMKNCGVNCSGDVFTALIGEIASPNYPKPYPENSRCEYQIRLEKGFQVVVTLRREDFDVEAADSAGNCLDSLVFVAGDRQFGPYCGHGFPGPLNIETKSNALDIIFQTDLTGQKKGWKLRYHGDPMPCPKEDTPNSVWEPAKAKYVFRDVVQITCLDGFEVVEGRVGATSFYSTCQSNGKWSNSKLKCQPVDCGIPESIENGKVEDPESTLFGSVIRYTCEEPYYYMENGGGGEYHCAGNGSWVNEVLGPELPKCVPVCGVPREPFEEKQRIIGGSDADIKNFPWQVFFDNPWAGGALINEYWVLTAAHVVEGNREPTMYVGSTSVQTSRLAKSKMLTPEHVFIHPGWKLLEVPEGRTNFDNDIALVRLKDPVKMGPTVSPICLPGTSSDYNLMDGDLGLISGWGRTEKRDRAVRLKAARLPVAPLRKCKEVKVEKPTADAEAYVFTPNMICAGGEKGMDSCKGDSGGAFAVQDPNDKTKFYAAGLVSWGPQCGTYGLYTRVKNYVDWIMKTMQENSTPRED
Text: At last, analyte was dissociated in 1×KB for 360 sec. Data analysis was done using OCTET® Data Analysis HT Software (Sartorius AG).

[2] = biological target: T2, human C1s mutant M9 (K336G, D343Y & E351A) (human, UniProt P09871 16-688); test: ELISA, plate coated with human C1s mutant M9: K336G, D343Y, E351A, OD450nm; the curve reaches only OD450 about 0.7 at 1000 ng/ml
T2 construct: The entry is the mutant itself
T2 sequence: T1 sequence with K336G, D343Y, E351A
Method: ELISA was carried out by first coating 96-well plates with 200 ng/well of full-length or truncated C1s proteins overnight. The next morning, plates were blocked with SuperBlock T20 blocking buffer (Thermo Scientific 37536) for 1 h with gentle shaking. Then, various concentrations of anti-C1s antibodies diluted in SuperBlock T20 blocking buffer were added to the plates and incubated for 1 h with gentle shaking. Mouse IgG (Sigma-Aldrich 15381) and human IgG1 (BioXCell BP0297) were used as negative controls. The plates were washed before incubating with HRP conjugated secondary antibodies diluted in SuperBlock T20 blocking buffer (goat anti-mouse IgG (H+L) cross-adsorbed secondary antibody HRP (Invitrogen G-21040) or goat anti-human IgG antibody, HRP conjugate (Millipore AP309P)) for 1 h with gentle shaking. At last, the plates were washed and color developed with ELISA liquid HRP substrate (Sigma-Aldrich), followed by stopping the reaction with addition of 1M H₂SO₄ in the same volume as the ELISA liquid substrate. Bound antibody was measured by absorbance at OD₄₅₀ₙₘ.
Binding of anti-C1s antibodies to mutants M1-M20 of human C1s was measured by ELISA as described in Example 4, and results are shown in FIGS. 6B-6U. […]

B1: Anti-C1s antibody hz2-7(H1L2) (antibody, V domains shown)
VH: EVQLLESGGGLVQPGGSLRLSCAASGFTFSNYFMNWVRQAPGKGLEWVSEIRLKFTNYATHYADSVKGRFTISRDDSKSTLYLQMNSLRAEDTAVYYCTRDYGSRNGYFDYWGQGTLVTVSS
VL: DIVMTQTPLSLPVTPGEPASISCRSSKSLLHSNGNTFLYWFLQKPGQSPQLLIYRMSNLASGVPDRFSGSGSGTDFTLKISRVEAEDVGVYYCMQHLEYPYTFGGGTKLEIKR
notes: Humanized, human IgG1 / kappa; also called hz2-7(1L2)
Q: Which results are given for B1?
A: Kd [1]: 0.12 nM; koff [1]: 4.6e-05 s⁻¹; kon [1]: 390000 M⁻¹ s⁻¹; EC50 [2]: 0.013 µg/mL
